Results as given in paper PMC10275983 (2023).
No end group written: not given here.

Columns and labels:
Assay in all cases: SPR
[1] = target: S1 (Novus Biologicals NBP2-90985) (SARS-CoV-2, UniProt P0DTC2 14-685)
[2] = target: S1-RBD (ACROBiosystems SPD-C82E9) (SARS-CoV-2 (Wuhan-Hu-1 strain), UniProt P0DTC2 319-541)
[3] = target: S1-NTD (ACROBiosystems S1D-C52H6) (SARS-CoV-2 (Wuhan-Hu-1 strain))
[4] = target: S2 (ACROBiosystems S2N-C52E8) (SARS-CoV-2 (Wuhan-Hu-1 strain), UniProt P0DTC2 14-1273)

Binder | Kd [1] | Kd [2] | Kd [3] | Kd [4]
ACEDNDWVYCSTCA (not fully specified (bridges); also: Bicycle) [E3 Bicycle (exemplar of epitope group 3)] | 2500 nM | 2300 nM | – | –
ACDHYHCPWLALGGSCA (not fully specified (bridges); also: bicyclic peptide, scaffold not given here) [E6 Bicycle (exemplar of epitope group 6)] | – | – | 3900 nM | –
ACANPDNPVCRFYCA (not fully specified (bridges); also: bicyclic peptide, scaffold not named) [E5 Bicycle (canonical exemplar of epitope group 5)] | 24 nM | – | – | –
ACIPLDWTCMIACA (not fully specified (bridges); also: bicyclic peptide, scaffold not named) [E4 Bicycle (exemplar of epitope group 4)] | 2900 nM | – | 440 nM | –
ACINPYCEHHIYLEHCA (not fully specified (bridges); also: bicyclic peptide, scaffold not given here) [E7 Bicycle (exemplar of epitope group 7)] | – | – | 4000 nM | –
ACFPEPWLGLCTPCA (not fully specified (bridges); also: Bicycle) [E11 Bicycle (exemplar of epitope group 11)] | – | – | – | 530 nM
ACMNPFFYDCETVCA (not fully specified (bridges); also: bicyclic peptide, scaffold not named) [E9 Bicycle (exemplar of epitope group 9)] | 3800 nM | 4100 nM | – | –
ACEYVGPMCYRLYCA (not fully specified (bridges); also: Bicycle) [E1 Bicycle (exemplar of epitope group 1)] | 5100 nM | 3600 nM | – | –
ACPYVAGRGTCLLCA (not fully specified (bridges); also: Bicycle) [E2 Bicycle (canonical exemplar of epitope group 2)] | 830 nM | 650 nM | – | –
ACSSKFCDAWWNFNRCA (not fully specified (bridges); also: Bicycle) [E12 Bicycle (exemplar of epitope group 12)] | – | – | – | 810 nM
